{
  "source": "patent US20250026846A1",
  "about": "(JCR PHARMACEUTICALS, published 2025)",
  "key": {"[1]": {"molecular_target": "T1, Fab GS-GAA (fusion protein between Fab anti-hTfR antibody 3N and hGAA)", "T1 construct": "also called Fab GS3-GAA; Fab-GS3-GAA", "T1 sequence (light, as listed by the source, chain 1 of 2)": "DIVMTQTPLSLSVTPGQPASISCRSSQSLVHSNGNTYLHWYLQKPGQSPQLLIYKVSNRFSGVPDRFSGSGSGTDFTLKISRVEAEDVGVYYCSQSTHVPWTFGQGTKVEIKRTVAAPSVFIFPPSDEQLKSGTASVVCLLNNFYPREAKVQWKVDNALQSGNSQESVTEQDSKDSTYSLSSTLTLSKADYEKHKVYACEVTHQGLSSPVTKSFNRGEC", "T1 sequence (heavy, as listed by the source, chain 2 of 2)": "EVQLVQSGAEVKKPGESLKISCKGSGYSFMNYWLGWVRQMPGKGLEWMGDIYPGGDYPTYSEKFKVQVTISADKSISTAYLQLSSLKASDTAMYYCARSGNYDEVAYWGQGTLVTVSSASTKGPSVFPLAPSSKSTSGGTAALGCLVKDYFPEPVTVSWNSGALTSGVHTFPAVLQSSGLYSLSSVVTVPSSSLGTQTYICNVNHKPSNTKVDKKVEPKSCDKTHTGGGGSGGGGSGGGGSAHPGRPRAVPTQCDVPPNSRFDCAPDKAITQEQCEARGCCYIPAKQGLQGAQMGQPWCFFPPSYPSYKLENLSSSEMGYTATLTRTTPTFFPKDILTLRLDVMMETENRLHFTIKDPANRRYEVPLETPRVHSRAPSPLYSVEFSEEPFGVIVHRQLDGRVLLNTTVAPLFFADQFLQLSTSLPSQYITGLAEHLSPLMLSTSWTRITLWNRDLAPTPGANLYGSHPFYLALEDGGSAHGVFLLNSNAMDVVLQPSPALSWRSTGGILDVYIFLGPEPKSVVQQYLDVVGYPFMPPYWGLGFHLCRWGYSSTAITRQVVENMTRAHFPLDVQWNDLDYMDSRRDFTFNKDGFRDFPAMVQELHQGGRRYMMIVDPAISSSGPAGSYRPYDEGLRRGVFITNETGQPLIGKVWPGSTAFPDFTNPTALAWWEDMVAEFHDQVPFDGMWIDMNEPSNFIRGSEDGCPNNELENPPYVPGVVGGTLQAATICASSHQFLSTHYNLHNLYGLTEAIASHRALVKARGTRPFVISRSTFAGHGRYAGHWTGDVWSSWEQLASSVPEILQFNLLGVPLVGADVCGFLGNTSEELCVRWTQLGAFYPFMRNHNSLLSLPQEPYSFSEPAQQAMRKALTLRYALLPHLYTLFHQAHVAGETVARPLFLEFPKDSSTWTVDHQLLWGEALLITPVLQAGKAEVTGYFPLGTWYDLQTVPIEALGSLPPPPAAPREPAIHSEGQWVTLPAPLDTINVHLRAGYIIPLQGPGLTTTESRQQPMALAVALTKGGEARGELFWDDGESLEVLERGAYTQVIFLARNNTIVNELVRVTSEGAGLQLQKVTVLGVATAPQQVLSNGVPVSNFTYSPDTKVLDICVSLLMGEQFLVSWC", "assay": "BLI (Octet RED96), His-tagged TfR ECD on Ni-NTA sensor; Table 21, Fab-GS3-GAA"}, "[2]": {"molecular_target": "T1, Fab GS-GAA (fusion protein between Fab …)", "assay": "BLI (Octet RED96), His-tagged TfR ECD on Ni-NTA sensor", "experimental": "(§1) Each of the sample solutions prepared above by 2-fold dilution steps was added, 200 μL/well, to a 96-well plate, black (Greiner Bio-One Inc.). Each of the r human TfR-ECD (Histag) solution and the r monkey TfR-ECD (Histag) solutions prepared above was added, 200 μL/well, to predetermined wells. To respective wells for baseline, dissociation and washing were added HBS-P+, 200 μL/well. To wells for regeneration were added 10 mM Glycine-HCl (pH 1.7), 200 μL/well. To wells for activation was added 0.5 mM NiCl₂ solution, 200 μL/well. The plate and biosensor (Biosensor/Ni-NTA: ForteBio Inc., a division of Pall Corporation) were set in the prescribed positions of Octet RED96.\n(§2) The measurement was performed at 25 to 30° C.\n(§3) The affinity of the hGAA-anti-hTfR antibody 3N (IgG4) obtained in Example 26 to human TfR and monkey TfR was measured in accordance with the method described in Example 23."}, "[3]": {"molecular_target": "hGAA-anti-hTfR antibody 3N (IgG4)", "sequence (light, as listed by the source, chain 1 of 2)": "as the sequence (light, as listed by the source, chain 1 of 2) above", "sequence (heavy, as listed by the source, chain 2 of 2)": "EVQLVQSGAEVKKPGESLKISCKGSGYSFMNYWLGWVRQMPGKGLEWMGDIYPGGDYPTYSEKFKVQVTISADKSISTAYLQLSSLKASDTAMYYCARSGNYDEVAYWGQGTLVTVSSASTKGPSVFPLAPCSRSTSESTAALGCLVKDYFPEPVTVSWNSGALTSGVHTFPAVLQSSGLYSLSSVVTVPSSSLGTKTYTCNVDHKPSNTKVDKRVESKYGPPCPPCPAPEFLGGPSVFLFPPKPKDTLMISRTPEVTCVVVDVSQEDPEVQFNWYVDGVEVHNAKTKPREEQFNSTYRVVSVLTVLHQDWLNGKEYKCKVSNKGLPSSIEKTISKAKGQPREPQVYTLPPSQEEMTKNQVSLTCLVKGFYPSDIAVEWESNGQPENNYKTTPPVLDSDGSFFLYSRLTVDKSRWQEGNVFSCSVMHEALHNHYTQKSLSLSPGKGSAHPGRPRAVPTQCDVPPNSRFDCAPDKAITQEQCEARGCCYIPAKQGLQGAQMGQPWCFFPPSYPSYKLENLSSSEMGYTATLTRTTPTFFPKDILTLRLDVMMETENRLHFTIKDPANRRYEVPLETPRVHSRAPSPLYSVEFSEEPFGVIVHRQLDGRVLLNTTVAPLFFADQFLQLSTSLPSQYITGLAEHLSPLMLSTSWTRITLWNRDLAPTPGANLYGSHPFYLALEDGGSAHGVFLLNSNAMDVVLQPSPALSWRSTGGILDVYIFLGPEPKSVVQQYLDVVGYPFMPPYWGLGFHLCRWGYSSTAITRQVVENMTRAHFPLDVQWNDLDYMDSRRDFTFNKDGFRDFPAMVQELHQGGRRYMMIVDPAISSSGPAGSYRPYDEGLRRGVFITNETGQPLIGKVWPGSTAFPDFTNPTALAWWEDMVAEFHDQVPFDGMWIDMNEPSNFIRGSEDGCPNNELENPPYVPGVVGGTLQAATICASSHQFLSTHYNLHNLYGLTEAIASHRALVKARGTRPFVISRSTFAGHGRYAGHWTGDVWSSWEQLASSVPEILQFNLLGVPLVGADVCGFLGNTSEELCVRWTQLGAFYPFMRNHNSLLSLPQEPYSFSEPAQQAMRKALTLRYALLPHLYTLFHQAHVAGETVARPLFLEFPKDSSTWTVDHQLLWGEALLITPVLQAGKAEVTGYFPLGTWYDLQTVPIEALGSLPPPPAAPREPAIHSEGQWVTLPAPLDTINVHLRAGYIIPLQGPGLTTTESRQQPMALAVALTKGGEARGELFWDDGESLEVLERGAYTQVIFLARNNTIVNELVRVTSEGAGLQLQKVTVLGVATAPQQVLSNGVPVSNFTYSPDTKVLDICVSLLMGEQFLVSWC", "assay": "BLI (Octet RED96), His-tagged TfR ECD on Ni-NTA sensor", "experimental": "as §1, §2, §3"}, "[4]": {"molecular_target": "T1, Fab GS-GAA (fusion protein between Fab …)", "assay": "BLI (Octet RED96), His-tagged TfR ECD on Ni-NTA sensor; Table 17-2, Fab GS-GAA"}},
  "data": [
    {"binder": "recombinant monkey TfR (r monkey TfR: Sino Biological Inc.), crab-eating monkey TfR extracellular region with a histidine tag at the N-terminus (receptor, Bought from Sino Biological; also called r monkey TfR-ECD (Histag); not shown: histidine tag at the N-terminus) CKGVEPKTECERLAGTESPAREEPEEDFPAAPRLYWDDLKRKLSEKLDTTDFTSTIKLLNENLYVPREAGSQKDENLALYIENQFREFKLSKVWRDQHFVKIQVKDSAQNSVIIVDKNGGLVYLVENPGGYVAYSKAATVTGKLVHANFGTKKDFEDLDSPVNGSIVIVRAGKITFAEKVANAESLNAIGVLIYMDQTKFPIVKADLSFFGHAHLGTGDPYTPGFPSFNHTQFPPSQSSGLPNIPVQTISRAAAEKLFGNMEGDCPSDWKTDSTCKMVTSENKSVKLTVSNVLKETKILNIFGVIKGFVEPDHYVVVGAQRDAWGPGAAKSSVGTALLLKLAQMFSDMVLKDGFQPSRSIIFASWSAGDFGSVGATEWLEGYLSSLHLKAFTYINLDKAVLGTSNFKVSASPLLYTLIEKTMQDVKHPVTGRSLYQDSNWASKVEKLTLDNAAFPFLAYSGIPAVSFCFCEDTDYPYLGTTMDTYKELVERIPELNKVARAAAEVAGQFVIKLTHDTELNLDYERYNSQLLLFLRDLNQYRADVKEMGLSLQWLYSARGDFFRATSRLTTDFRNAEKRDKFVMKKLNDRVMRVEYYFLSPYVSPKESPFRHVFWGSGSHTLSALLESLKLRRQNNSAFNETLFRNQLALATWTIQGAANALSGDVWDIDNEF", "values": [
      {"measurement": "Kd", "setting": "[1]", "value": 30.5, "unit": "nM"},
      {"measurement": "koff", "setting": "[1]", "value": 0.0145, "unit": "s⁻¹"},
      {"measurement": "kon", "setting": "[1]", "value": 473000, "unit": "M⁻¹ s⁻¹"},
      {"measurement": "koff", "setting": "[2]", "value": 0.00501, "unit": "s⁻¹"},
      {"measurement": "kon", "setting": "[2]", "value": 329000, "unit": "M⁻¹ s⁻¹"},
      {"measurement": "Kd", "setting": "[3]", "value": "< 0.001", "unit": "nM"},
      {"measurement": "koff", "setting": "[3]", "value": "< 1e-07", "unit": "s⁻¹"},
      {"measurement": "kon", "setting": "[3]", "value": 203000, "unit": "M⁻¹ s⁻¹"},
      {"measurement": "Kd", "setting": "[4]", "value": 15.2, "unit": "nM"}
    ]}
  ]
}
